This assay concerns the target T1, C-terminal flag-tagged ACPP transmembrane protein expressed on 293T cells (pcDNA-ACPP-flag).
T1 sequence: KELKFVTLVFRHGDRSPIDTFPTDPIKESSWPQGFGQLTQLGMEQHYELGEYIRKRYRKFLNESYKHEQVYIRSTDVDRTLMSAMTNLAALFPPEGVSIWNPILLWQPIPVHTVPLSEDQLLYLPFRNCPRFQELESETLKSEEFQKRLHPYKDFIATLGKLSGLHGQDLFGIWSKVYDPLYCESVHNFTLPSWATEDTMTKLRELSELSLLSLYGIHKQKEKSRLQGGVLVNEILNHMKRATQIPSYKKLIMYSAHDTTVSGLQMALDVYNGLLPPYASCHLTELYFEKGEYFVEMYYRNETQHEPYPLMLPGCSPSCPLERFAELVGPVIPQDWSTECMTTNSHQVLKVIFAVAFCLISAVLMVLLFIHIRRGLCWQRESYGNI
Description: flow cytometry on 293T cells transfected with pcDNA-ACPP-flag, surface staining without permeabilisation, goat anti human-FITC secondary antibody. Background: In flow cytometry, cells or beads pass a laser one at a time.

B1: ACPP antibody S4C7 (human full antibody) (antibody, V domains shown)
VH: QMLVQSGAEVKRPGSSVTVSCETSGDTFSRYAISWLRQAPGQGLEWLGWISGNSGRADYAQNFQGRVTMTTDRSTSTAYLNLRSLRSDDTAVYYCARDAPMLFGVRGGGYYFGMDVWGQGTTVTVSS
VL: EIVLTQSASSLSASVGDRVTITCRTSQNIYRYLNWYQQKPGKAPKLLIFGASTLQTGVPSRFSGSGSGTDFTLTITGLQPEDLATYYCQHSFKLPFTFGQGTRLEIK
As for B1, the % of cells in the positive gate V1R stood at 0.1%.

B2: ACPP antibody S12D9 (human full antibody) (antibody, V domains shown)
VH: EVQLVQSGAEVRKPGSSVKVSCKASGDNFNNYGITWVRQAPGQGLEWMGRLITVLGLDNYAQKFQGRLTITADESTGTAYMELTGLEPEDTAVYYCARDIMSPEAIDAFDVWGQGTLVTVSS
VL: QPVLTQDPVVSVALGQTVRITCQGDSLRSYYATWYQQKPGLAPVRVIFGKNSRPSGIPDRFSGSSSGNTASLTITGAQAEDEADYYCNSWDNSANHPVFGGGTKLTVL
As for B2, the % of cells in the positive gate V1R is 0.01%.

B3: ACPP antibody S10E12 (human full antibody) (antibody, V domains shown)
VH: B2 VH
VL: DIQMTQSPSSLSASVGDRVTITCRASQDVSNYLNWYQQKPGKAPKLLIYGASNRQTGVPSRFSGSGSGTDFTLTISSLQPEDFATYYCQQEDRFPTTFGQGTKVEIK
In turn, B3 came in with a % of cells in the positive gate V1R of 0.18%.

B4: ACPP antibody S12D4 (human full antibody) (antibody, V domains shown)
VH: QMQLVQSGAEVRRPGSSVKVSCKTSGGTLNNYDINWVRQAPGQGLEWMGWMNPTSGQADFAQKFQGRVSMTRDTSINTAFMELNTLRSEDTAVYYCVRRGGKYWGQGTLVTVSS
VL: QPVLTQDPAVSVALGQTVRITCQGDSLRKYYASWYQQKPGQAPRLVMYDENDRPSGIPDRFSGSSSGNTASLTITGAQADDEADYYCNSRDSSGHHVVFGGGTKVTVL
In turn, B4 displayed a % of cells in the positive gate V1R of 0.06%.

B5: ACPP antibody S9F5 (human full antibody) (antibody, V domains shown)
VH: EVQLVESGGGLVQPGGSLRLSCAASGFTFSNYWMSWVRQAPGKGLEWVAGISASGGNKYYADSVKGRFTISRDNSKNTLYLQMNSLRAEDTAVYYCAKGPIQLKRHKYVLDYWGQGTLVTVSS
VL: SYELTQPPSVSVAPGQTARITCGGDALPNNSVRWYQQKPGQAPVLVIYGNSERPSGIPERFSGSNSGNTATLTISGTQAEDEADYYCQVSDKSTKYSVFGGGTKLTVL
Take B5: the % of cells in the positive gate V1R came out at 0.15%.

The values are drawn from patent US20250171560A1.
